Results reported in the supplement of paper PMC10567573.

B1: RAD54B (parent)
chain: YVQEKRDGLKRRQQLEEELLRAKI

Variants of: B1
Assay: protein stability index of a GFP-peptide fusion (GPS, HEK-293T) (PSI 1-6); higher = more stable
Conditions: c terminus: a fixed tail appended
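Note: lentivirally expressed fusions sorted by FACS into six bins by GFP to DsRed ratio, PSI derived from sequencing read proportions per bin multiplied by bin number.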

| Variant | protein stability index |
| --- | --- |
| YVQEKRDGLKRRQQLCEELLRAKI [E16C] | 2.09 |
| YVQEKRDGLKRRQQLEEELLTAKI [R21T] | 2.26 |
| YVQEKRDGLKRRQQLEEELLPAKI [R21P] | 2.32 |
| YVQEKRDGLKRRQQLEEELLWAKI [R21W] | 1.93 |
| YVQEKRDGLKRRQQLEEELLFAKI [R21F] | 1.93 |
| YVQEKRDGLKRRQQLEEELLYAKI [R21Y] | 1.75 |
| YVQEKRDGLKRRQQLEEELLGAKI [R21G] | 2.09 |
| YVQEKRDGLKRRQQLEEELLEAKI [R21E] | 2.17 |
| YVQEKRDGLKRRQQLEEELLLAKI [R21L] | 1.84 |
| YVQEKRDGLKRRQQLEEELLSAKI [R21S] | 2.97 |
| YVQEKRDGLKRRQQLEEELLDAKI [R21D] | 2.1 |
| YVQEKRDGLKRRQQLEEELLAAKI [R21A] | 1.66 |
| YVQEKRDGLKRRQQLEEELLIAKI [R21I] | 2.16 |
| YVQEKRDGLKRRQQLEEELLHAKI [R21H] | 1.57 |
| YVQEKRDGLKRRQQLEEELLVAKI [R21V] | 1.94 |
| YVQEKRDGLKRRQQLEEELLCAKI [R21C] | 1.87 |
| YVQEKRDGLKRRQQLEEELLMAKI [R21M] | 1.96 |
| YVQEKRDGLKRRQQLEEELLNAKI [R21N] | 1.8 |
| YVQEKRDGLKRRQQLEEELLKAKI [R21K] | 2.19 |
| YVQEKRDGLKRRQQLEEELLQAKI [R21Q] | 1.89 |
| YVQEKRDGLKRRQQLEERLLRAKI [E18R] | 1.88 |
| YVQEKRDGLKRRQQLEEGLLRAKI [E18G] | 2.53 |
| YVQEKRDGLKRRQQLEEFLLRAKI [E18F] | 2.06 |
| YVQEKRDGLKRRQQLEEILLRAKI [E18I] | 1.67 |

| Variant | protein stability index |
| --- | --- |
| YVQEKRDGLKRRQQLEEVLLRAKI [E18V] | 1.94 |
| YVQEKRDGLKRRQQLEETLLRAKI [E18T] | 1.48 |
| YVQEKRDGLKRRQQLEECLLRAKI [E18C] | 1.73 |
| YVQEKRDGLKRRQQLEEMLLRAKI [E18M] | 2.01 |
| YVQEKRDGLKRRQQLEEWLLRAKI [E18W] | 2.42 |
| YVQEKRDGLKRRQQLEEHLLRAKI [E18H] | 2.29 |
| YVQEKRDGLKRRQQLEEYLLRAKI [E18Y] | 2.22 |
| YVQEKRDGLKRRQQLEEPLLRAKI [E18P] | 2 |
| YVQEKRDGLKRRQQLEELLLRAKI [E18L] | 1.55 |
| YVQEKRDGLKRRQQLEEALLRAKI [E18A] | 2.02 |
| YVQEKRDGLKRRQQLEEKLLRAKI [E18K] | 1.95 |
| YVQEKRDGLKRRQQLEEDLLRAKI [E18D] | 1.86 |
| YVQEKRDGLKRRQQLEESLLRAKI [E18S] | 2.13 |
| YVQEKRDGLKRRQQLEENLLRAKI [E18N] | 1.96 |
| YVQEKRDGLKRRQQLEEQLLRAKI [E18Q] | 2.03 |
| YVQEKRDGLKRRYQLEEELLRAKI [Q13Y] | 1.9 |
| YVQEKRDGLKRRQQLEEELTRAKI [L20T] | 1.82 |
| YVQEKRDGLKRRQQLEEELCRAKI [L20C] | 1.59 |
| YVQEKRDGLKRRQQLEEELKRAKI [L20K] | 2.19 |
| YVQEKRDGLKRRQQLEEELSRAKI [L20S] | 1.67 |
| YVQEKRDGLKRRQQLEEELARAKI [L20A] | 1.95 |
| YVQEKRDGLKRRQQLEEELRRAKI [L20R] | 2.18 |
| YVQEKRDGLKRRQQLEEELYRAKI [L20Y] | 2.26 |
| YVQEKRDGLKRRQQLEEELQRAKI [L20Q] | 1.75 |

| Variant | protein stability index |
| --- | --- |
| YVQEKRDGLKRRQQLEEELHRAKI [L20H] | 1.81 |
| YVQEKRDGLKRRQQLEEELNRAKI [L20N] | 1.94 |
| YVQEKRDGLKRRQQLEEELIRAKI [L20I] | 1.76 |
| YVQEKRDGLKRRQQLEEELMRAKI [L20M] | 1.78 |
| YVQEKRDGLKRRQQLEEELERAKI [L20E] | 2.25 |
| YVQEKRDGLKRRQQLEEELVRAKI [L20V] | 1.49 |
| YVQEKRDGLKRRQQLEEELGRAKI [L20G] | 2.08 |
| YVQEKRDGLKRRQQLEEELPRAKI [L20P] | 1.78 |
| YVQEKRDGLKRRQQLEEELFRAKI [L20F] | 1.3 |
| YVQEKRDGLKRRQQLEEELWRAKI [L20W] | 2.08 |
| YVQEKRDGLKRRQQLEEELDRAKI [L20D] | 1.97 |
| YVQEKRDGLKRRQQLEEELLRACI [K23C] | 1.79 |
| YVQEKRDGLKRRQQLEEELLRAPI [K23P] | 2.63 |
| YVQEKRDGLKRRQQLEEELLRAII [K23I] | 1.73 |
| YVQEKRDGLKRRQQLEEELLRAEI [K23E] | 1.71 |
| YVQEKRDGLKRRQQLEEELLRAFI [K23F] | 1.81 |
| YVQEKRDGLKRRQQLEEELLRAAI [K23A] | 1.78 |
| YVQEKRDGLKRRQQLEEELLRADI [K23D] | 2.55 |
| YVQEKRDGLKRRQQLEEELLRARI [K23R] | 2.45 |
| YVQEKRDGLKRRQQLEEELLRAHI [K23H] | 2.95 |
| YVQEKRDGLKRRQQLEEELLRAGI [K23G] | 1.86 |
| YVQEKRDGLKRRQQLEEELLRAMI [K23M] | 2.62 |
| YVQEKRDGLKRRQQLEEELLRAQI [K23Q] | 1.59 |
| YVQEKRDGLKRRQQLEEELLRATI [K23T] | 2.08 |

| Variant | protein stability index |
| --- | --- |
| YVQEKRDGLKRRQQLEEELLRALI [K23L] | 3.08 |
| YVQEKRDGLKRRQQLEEELLRANI [K23N] | 2.28 |
| YVQEKRDGLKRRQQLEEELLRASI [K23S] | 2.36 |
| YVQEKRDGLKRRQQQEEELLRAKI [L15Q] | 1.7 |
| YVQEKRDGLKRRQQVEEELLRAKI [L15V] | 1.48 |
| YVQEKRDGLKRRQQGEEELLRAKI [L15G] | 1.75 |
| YVQEKRDGLKRRQQWEEELLRAKI [L15W] | 1.49 |
| YVQEKRDGLKRRQQMEEELLRAKI [L15M] | 2.56 |
| YVQEKRDGLKRRQQIEEELLRAKI [L15I] | 2.32 |
| YVQEKRDGLKRRQQYEEELLRAKI [L15Y] | 2.44 |
| YVQEKRDGLKRRQQDEEELLRAKI [L15D] | 2.09 |
| YVQEKRDGLKRRQQREEELLRAKI [L15R] | 1.99 |
| YVQEKRDGLKRRQQKEEELLRAKI [L15K] | 2.05 |
| YVQEKRDGLKRRQQAEEELLRAKI [L15A] | 1.93 |
| YVQEKRDGLKRRQQFEEELLRAKI [L15F] | 1.4 |
| YVQEKRDGLKRRQQSEEELLRAKI [L15S] | 1.95 |
| YVQEKRDGLKRRQQPEEELLRAKI [L15P] | 1.51 |
| YVQEKRDGLKRRQQTEEELLRAKI [L15T] | 1.55 |
| YVQEKRDGLKRRQQCEEELLRAKI [L15C] | 1.87 |
| YVQEKRDGLKRRQQEEEELLRAKI [L15E] | 2.61 |
| YVQEKRDGLKRRQQNEEELLRAKI [L15N] | 2.05 |
| YVQEKRDGLKRRQQHEEELLRAKI [L15H] | 2.38 |
